{"source": "patent US6468985B1", "about": "“Retinoblastoma protein-interacting zinc finger proteins” (The Burnham Institute, priority 1994, dated 2002)", "molecules": {"B1": {"name": "purified rat RIZ (a.a. position 215-462) fused C-terminal to glutathionine S-transferase (GST) (other)", "chain": "PLASAPEQPAPLPEVGNQDAVPQVAIPLPACEPQPEVDGKQEVTDCEVNDVEEEELEEEEELEEEEEEELGEDGVEEADMPNESSAKEPEIRCEEKPEDLLEEPQSMSNEAREDSPDVTPPPHTPRAREEANGDVLETFMFPCQHCERKFATKQGLERHMHIHISTINHAFKCKYCGKRFGTQINRRRHERRHETGLKRRPSMTLQSSEDPDDGKGENVTSKDESSPPQLGQDCLILNSEKTSQEVLN", "notes": "not shown: glutathione S-transferase"}, "B2": {"name": "56 kD fragment of Rb produced by bacterial expression from p56Rb plasmid (other, UniProt P06400 379-928, looked up)", "chain": "MNTIQQLMMILNSASDQPSENLISYFNNCTVNPKESILKRVKDIGYIFKEKFAKAVGQGCVEIGSQRYKLGVRLYYRVMESMLKSEEERLSIQNFSKLLNDNIFHMSLLACALEVVMATYSRSTSQNLDSGTDLSFPWILNVLNLKAFDFYKVIESFIKAEGNLTREMIKHLERCEHRIMESLAWLSDSPLFDLIKQSKDREGPTDHLESACPLNLPLQNNHTAADMYLSPVRSPKKKGSTTRVNSTANAETQATSAFQTQKPLKSTSLSLFYKKVYRLAYLRLNTLCERLLSEHPELEHIIWTLFQHTLQNEYELMRDRHLDQIMMCSMYGICKVKNIDLKFKIIVTAYKDLPHAVQETFKRVLIKEEEYDSIIVFYNSVFMQRLKTNILQYASTRPPTLSPIPHIPRSPYKFPSSPLRIPGGNIYISPLKSPYKISEGLPTPTKMTPRSRILVSIGESFGTSEKFQKINQMVCNSDRVLKRSAEGSNPPKPLKKLRFDIEGSDEADGSKHLPGESKFQQKLAEMTSTRTRMQKQKMNDSMDTSNKEEK", "notes": "range 379-928; Expressed in E. coli; also called 56 kD Rb"}}, "key": {"E1A 12S": {"target": "E1A 12S (Human adenovirus C serotype 5, UniProt P03255)", "sequence (P03255 1-139, added parts left off)": "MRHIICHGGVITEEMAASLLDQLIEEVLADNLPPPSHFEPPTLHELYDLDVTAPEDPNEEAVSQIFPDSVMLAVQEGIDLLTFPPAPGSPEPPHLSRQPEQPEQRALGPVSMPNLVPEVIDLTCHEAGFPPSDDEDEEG", "method": "To investigate this relationship further, the anti-RIZ antiserum raised against the GST-RIZ (245-573) fusion protein containing the cr2, ce1 and part of the cr1 motifs, was tested for cross reactivity with E1A. For these experiments, E1A was labeled with ^35S-methionine during in vitro transcription/translation using methods described above.\nTo further verify binding between anti-RIZ and E1A, the cross reactive antibodies from the anti-RIZ antiserum were purified by affinity chromatography on a column containing E1A 12S protein.\nE1A 12S, truncated at residue 223 (E1A223) was produced by generating a PCR fragment of E1A using an upstream SP6 primer (Stratagene) a downstream E1A primer 5′-[sequence] […] The resulting PCR fragment was cloned into pCRSK+, which was used to direct the synthesis of the mutant E1A 12S protein by SP6 in vitro transcription/translation. The full length E1A 12S (E1A243) was produced from vector pGEM1Ad5E1A12S by in vitro transcription/translation as described above for the other vectors.\nThe regions of RIZ and E1A 12S that contain the ce1 epitope show significant amino acid sequence homology (FIG. 2A). The sequence ^312EDLLEE (SEQ ID NO: 20) in RIZ and the sequence ^224EDLLNE (SEQ ID NO: 21) in E1A are likely sites for the ce1 epitope. To evaluate this possibility, an 11 amino acid peptide encompassing residues 310-320 in RIZ (ce1 peptide) [sequence] […]"}, "RIZ": {"target": "T1, RIZ (Rattus norvegicus, UniProt Q63755)", "T1 construct": "made in house; host or cells: in vitro transcription/translation (rabbit reticulocyte lysate)", "T1 sequence (Q63755 1-318)": "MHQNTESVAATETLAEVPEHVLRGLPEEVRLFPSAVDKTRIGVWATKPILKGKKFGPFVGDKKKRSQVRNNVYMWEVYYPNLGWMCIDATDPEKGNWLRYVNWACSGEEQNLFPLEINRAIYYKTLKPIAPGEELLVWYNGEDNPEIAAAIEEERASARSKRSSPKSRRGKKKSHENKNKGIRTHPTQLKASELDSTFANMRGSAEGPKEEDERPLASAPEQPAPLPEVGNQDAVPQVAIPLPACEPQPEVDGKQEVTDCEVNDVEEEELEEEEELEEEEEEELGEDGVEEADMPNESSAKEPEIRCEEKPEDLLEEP", "assay": "binding of anti-RIZ antiserum / anti-ce1 antibody to RIZ and RIZ truncation mutants", "method": "Anti-RIZ antibodies purified from the E1A affinity column were tested for binding to RIZ and E1A. […] The E1A-affinity purified RIZ antibodies were designated “anti-ce1” for cross reacting E1A antigen.\nAnti-ce1 antibodies were tested for binding to various deletion mutants of RIZ and E1A 12S in order to map the location of the ce1 epitope on each molecule.\nTo evaluate this possibility, an 11 amino acid peptide encompassing residues 310-320 in RIZ (ce1 peptide) [sequence] (SEQ ID NO: 7) and an overlapping 11 amino acid control peptide encompassing residues 304-314 containing the cr2 core motif of RIZ, peptide [sequence] (SEQ ID NO: 6), were synthesized by solid phase peptide synthesis and tested for their ability to block binding between anti-ce1 antibody and RIZ or E1A."}, "p56EERb": {"target": "T2, p56EERb (Homo sapiens, UniProt P06400)", "T2 construct": "p56 Rb: 56 kD fragment of Rb from a.a. position 379-928; made in house; host or cells: E. coli BL21(DE3)pLysS", "T2 sequence (P06400 379-928)": "B2 chain", "assay": "cDNA expression library filter screening with p56EERb, binding-specificity control", "conditions": "p56EERb preincubated with 5 μM poly-L-lysine or 50 μM T- or K-peptide", "procedure": "A rat RIZ cDNA was obtained from a rat neonatal cardiac myocyte λgt11 cDNA expression library (Zhu et al., Mol. Cell Biol., 13:4432 (1993), which is incorporated herein by reference). The library was screened using a 56 kD fragment containing the pocket binding site of Rb and the EE epitope (p56EERb) according to previously described methods (Macgregor et al., Oncogene, 5:451-458 (1991), which is incorporated herein by reference).\nFor binding-specificity control, p56EERb was preincubated with 5 μM poly-L-lysine (Sigma) or 50 μM T- or K-peptide (Huang et al., supra, 1991) before applying onto filters. T peptide is an 18 residue synthetic peptide derived from residues 101-118 of SV40 large T antigen, while K peptide is the same as T peptide except for a lysine residue substituted for a glutamic acid residue at position 107 of SV40 large T antigen (Huang et al., supra, 1991).\nThe binding of p56EERb to a clone expressing a RIZ protein was detected using an anti-EE monoclonal antibody obtained as spent culture medium of the anti-EE hybridoma (Walter, supra, 1986) and an alkaline phosphatase conjugated goat anti-mouse IgG antibody specific for mouse immunoglobulin (Promega; Madison Wis.)."}, "[1]": {"target": "T3, hypophosphorylated Rb (pRb) from HT1080 cell extract (UniProt P06400 2-928, hypophosphorylated form)", "T3 construct": "Endogenous protein in a cell lysate; also called Rb from HT1080 cells; fastest migrating forms of Rb", "T3 sequence (looked up)": "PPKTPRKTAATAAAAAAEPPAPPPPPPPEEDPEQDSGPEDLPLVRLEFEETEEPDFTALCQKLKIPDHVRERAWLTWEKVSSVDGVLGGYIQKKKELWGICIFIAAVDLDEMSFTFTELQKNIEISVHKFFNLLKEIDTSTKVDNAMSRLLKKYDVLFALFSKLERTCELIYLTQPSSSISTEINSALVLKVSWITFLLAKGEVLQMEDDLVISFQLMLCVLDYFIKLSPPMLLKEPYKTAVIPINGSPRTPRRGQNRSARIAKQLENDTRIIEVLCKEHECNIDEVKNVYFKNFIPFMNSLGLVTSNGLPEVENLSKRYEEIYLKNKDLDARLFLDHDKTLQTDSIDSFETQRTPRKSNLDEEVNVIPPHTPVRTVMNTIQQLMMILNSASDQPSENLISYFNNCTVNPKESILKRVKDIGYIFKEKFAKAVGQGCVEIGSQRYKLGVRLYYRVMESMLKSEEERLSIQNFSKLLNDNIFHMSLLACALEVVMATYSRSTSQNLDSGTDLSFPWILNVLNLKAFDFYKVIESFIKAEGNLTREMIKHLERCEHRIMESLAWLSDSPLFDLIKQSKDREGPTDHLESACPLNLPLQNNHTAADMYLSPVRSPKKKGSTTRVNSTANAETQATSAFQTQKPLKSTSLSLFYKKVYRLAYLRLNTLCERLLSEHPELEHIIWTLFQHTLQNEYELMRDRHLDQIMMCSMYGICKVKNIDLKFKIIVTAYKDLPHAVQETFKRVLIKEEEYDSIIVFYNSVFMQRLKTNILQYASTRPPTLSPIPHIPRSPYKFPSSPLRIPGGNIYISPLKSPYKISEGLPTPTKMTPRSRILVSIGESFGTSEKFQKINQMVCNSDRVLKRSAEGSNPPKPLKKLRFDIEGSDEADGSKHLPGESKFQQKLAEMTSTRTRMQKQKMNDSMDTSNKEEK", "assay": "glutathione-agarose pull-down from HT1080 cell extract with 4 ug GST-RIZ; anti-Rb immunoblot", "method": "The cells were grown in DMEM supplemented with 100 fetal calf serum. Cells were lysed in ELB buffer (50 mM HEPES, pH 7.5, 250 mM NaCl, 0.1% NP-40) supplemented with 5 mM EDTA, 50 mM NaF, 1 mM Na orthovanadate, 1 mM of DTT, aprotinin, leupeptin, and PMSF. The lysate was cleared of cell debris by centrifugation at 12,000 rpm for 10 min in a microfuge."}, "[2]": {"target": "35S-labeled full length RIZ (rat, UniProt Q63755 1-1706, 35S label)", "assay": "GST fusion protein with in vitro translated labeled protein"}, "35S-RIZ (1-575)^307-Gly": {"target": "T4, 35S-RIZ (1-575)^307-Gly (rat, UniProt Q63755 1-575, 35S label)", "T4 construct": "In vitro transcribed/translated; also called glycine mutant; cr2 mutant", "T4 sequence": "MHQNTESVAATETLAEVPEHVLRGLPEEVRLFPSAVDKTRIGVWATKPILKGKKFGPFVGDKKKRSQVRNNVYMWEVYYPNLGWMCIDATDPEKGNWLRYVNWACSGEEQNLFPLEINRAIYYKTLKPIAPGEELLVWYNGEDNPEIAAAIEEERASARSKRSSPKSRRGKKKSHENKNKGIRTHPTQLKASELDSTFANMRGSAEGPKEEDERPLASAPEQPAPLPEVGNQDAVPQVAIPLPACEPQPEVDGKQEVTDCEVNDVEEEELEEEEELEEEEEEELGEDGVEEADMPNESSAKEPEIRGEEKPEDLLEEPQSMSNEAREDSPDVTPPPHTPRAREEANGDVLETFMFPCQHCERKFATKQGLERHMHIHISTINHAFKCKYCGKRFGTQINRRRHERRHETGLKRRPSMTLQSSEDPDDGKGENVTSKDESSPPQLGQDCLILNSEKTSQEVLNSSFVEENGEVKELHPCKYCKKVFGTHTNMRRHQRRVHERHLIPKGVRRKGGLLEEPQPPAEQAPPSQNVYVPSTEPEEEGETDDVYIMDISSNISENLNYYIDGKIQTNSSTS", "assay": "immunoprecipitation with anti-Rb antiserum, SDS-PAGE, autoradiography"}}, "data": [{"molecule": "KPEDLLEEPQS [ce1 peptide, 11 amino acid peptide encompassing residues 310-320 in RIZ]", "values": [{"measurement": "inhibition of binding between anti-ce1 antibody and 35S-E1A 12S (E1A243)", "setting": "E1A 12S", "value": "inhibited binding"}, {"measurement": "inhibition of binding between anti-ce1 antibody and 35S-RIZ318", "setting": "RIZ", "value": "inhibited binding"}]}, {"molecule": "poly-L-lysine", "values": [{"measurement": "inhibition of binding of p56EERb to RIZ-expressing clones", "setting": "p56EERb", "value": "maintained their reactivity"}]}, {"molecule": "B1", "values": [{"measurement": "binding result", "setting": "[1]", "value": "binds"}, {"measurement": "binding result", "setting": "[2]", "value": "no binding"}]}, {"molecule": "B2", "values": [{"measurement": "binding result", "setting": "35S-RIZ (1-575)^307-Gly", "value": "no binding (tested: 33 nM Rb)"}]}]}
